From publication PMC10719372, “Molecular mechanism of phospholipid transport at the bacterial outer membrane interface” (Nature Communications, 2023)

B1: OmpC (natural protein, E. coli, UniProt P06996 22-367, looked up)
chain: AEVYNKDGNKLDLYGKVDGLHYFSDNKDVDGDQTYMRLGFKGETQVTDQLTGYGQWEYQIQGNSAENENNSWTRVAFAGLKFQDVGSFDYGRNYGVVYDVTSWTDVLPEFGGDTYGSDNFMQQRGNGFATYRNTDFFGLVDGLNFAVQYQGKNGNPSGEGFTSGVTNNGRDALRQNGDGVGGSITYDYEGFGIGGAISSSKRTDAQNTAAYIGNGDRAETYTGGLKYDANNIYLAAQYTQTYNATRVGSLGWANKAQNFEAVAQYQFDFGLRPSLAYLQSKGKNLGRGYDDEDILKYVDVGATYYFNKNMSTYVDYKINLLDDNQFTRDAGINTDNIVALGLVYQF
notes: OmpC, outer membrane porin, E. coli; In the pull-down with MlaA variants some samples may have held OmpC-His (pDSW206ompC-His) in place of untagged OmpC; also called osmoporin OmpC; trimeric OmpC; source: E. coli BL21(λDE3) ΔompF::kan, over-expressed from pDSW206ompC; in DDM-solubilised lysate (pull-down) and purified with its partners (Ni-NTA, SEC)

How the values were obtained:
OmpC [1] = target: B1; test: cryo-EM structure; disulfide-trapped OmpC3-MlaA^Q205C-MlaC^V171C-His in MSP2N2 nanodiscs with E. coli polar lipids; 2.9 Å overall, density of MlaC limited to 5.0-7.0 Å; details: both partners purified
OmpC [2] = target: B1; test: SEC-MALS; SEC-purified disulfide-trapped OmpC3-MlaA^Cys-MlaC^Cys-His at 3 mg/ml, Superdex 200 Increase 10/300 GL, TBS pH 8.0 with 0.025% DDM, protein-conjugate analysis; details: both partners purified
[3] = target: the molecule itself; test: as above

| stoichiometry N (OmpC [1]) | stoichiometry N (OmpC [2]) | Binder | stoichiometry N [3] |
| --- | --- | --- | --- |
| 1 to 3 per OmpC trimer | ~2 per OmpC trimer | MlaA^Q205C (of the disulfide-trapped OmpC-MlaA-MlaC complex) (natural protein, E. coli, UniProt P76506 18-251, looked up, engineered MlaA^Q205C-MlaC^V171C disulfide bond, MlaA, OM lipoprotein, E. coli; also called MlaA^Cys) CASSGTDQQGRSDPLEGFNRTMYNFNFNVLDPYIVRPVAVAWRDYVPQPARNGLSNFTGNLEEPAVMVNYFLQGDPYQGMVHFTRFFLNTILGMGGFIDVAGMANPKLQRTEPHRFGSTLGHYGVGYGPYVQLPFYGSFTLRDDGGDMADGFYPVLSWLTWPMSVGKWTLEGIETRAQLLDSDGLLRCSSDPYIMVREAYFQRHDFIANGGELKPQENPNAQAIQDDLKDIDSE | – |
| – | – | B1 | 3 |
